Six molecules from patent US20230174623A1 (MIT, published 2023) can be followed below.

The target in test [1] is T1, CRP-XL-biotin (crosslinked collagen related peptide, biotinylated) (O represents hydroxyproline (all O positions); C-terminal amide (NH2); chains crosslinked to lock the helical structure; biotinylated (site not stated)).
T1 construct: also called CPP-XL-biotin; soluble collagen peptide mimic
Briefly: kinetic dissociation at 37 C on yeast, MFI of bound CRP-XL-biotin during competition with excess CRP-XL, one-phase exponential decay fit.

Test [2] deals with T2, collagen type I (collagen I coated 96 well-plates, Gibco).
T2 construct: also called collagen type 1
Briefly: ELISA on collagen I, anti-His-HRP. (In general: In an ELISA, binding on a coated surface is turned into a signal by an enzyme label.)

Test [3] concerns the target T3, bovine serum albumin (plate blocked with BSA) (bovine, UniProt P02769 25-607).
T3 construct: Specificity control surface
Briefly: ELISA on a plate blocked with bovine serum albumin, anti-His-HRP detection.

In test [4] the target is T2, collagen type I (collagen I coated 96 …). As to the kind of experiment: ELISA on collagen I after thawing from frozen, with excipients; data not shown.
Test [5] has the same target. As to the kind of experiment: ELISA, collagen I coated plate, anti-6xHis-HRP detection.
The target of test [6] is collagen type IV (collagen IV coated 96 well-plates, Corning). Briefly: ELISA, collagen IV coated plate, anti-6xHis-HRP detection.
Test [7] has as its target T2, collagen type I (collagen I coated 96 …). As to the kind of experiment: ELISA on collagen I coated plate, anti-6xHis-HRP.
Test [8] concerns the target collagen type IV (collagen IV coated 96 well-plates, Corning). Briefly: ELISA on collagen IV coated plate, anti-6xHis-HRP.
The target of test [9] is T2, collagen type I (collagen I coated 96 …). Briefly: competition ELISA on collagen I; 50 nM biotinylated lumican detected with streptavidin-HRP, rmLAIR1 varied.

T2 sequence (P02454 152-1207, chain 1 of 2): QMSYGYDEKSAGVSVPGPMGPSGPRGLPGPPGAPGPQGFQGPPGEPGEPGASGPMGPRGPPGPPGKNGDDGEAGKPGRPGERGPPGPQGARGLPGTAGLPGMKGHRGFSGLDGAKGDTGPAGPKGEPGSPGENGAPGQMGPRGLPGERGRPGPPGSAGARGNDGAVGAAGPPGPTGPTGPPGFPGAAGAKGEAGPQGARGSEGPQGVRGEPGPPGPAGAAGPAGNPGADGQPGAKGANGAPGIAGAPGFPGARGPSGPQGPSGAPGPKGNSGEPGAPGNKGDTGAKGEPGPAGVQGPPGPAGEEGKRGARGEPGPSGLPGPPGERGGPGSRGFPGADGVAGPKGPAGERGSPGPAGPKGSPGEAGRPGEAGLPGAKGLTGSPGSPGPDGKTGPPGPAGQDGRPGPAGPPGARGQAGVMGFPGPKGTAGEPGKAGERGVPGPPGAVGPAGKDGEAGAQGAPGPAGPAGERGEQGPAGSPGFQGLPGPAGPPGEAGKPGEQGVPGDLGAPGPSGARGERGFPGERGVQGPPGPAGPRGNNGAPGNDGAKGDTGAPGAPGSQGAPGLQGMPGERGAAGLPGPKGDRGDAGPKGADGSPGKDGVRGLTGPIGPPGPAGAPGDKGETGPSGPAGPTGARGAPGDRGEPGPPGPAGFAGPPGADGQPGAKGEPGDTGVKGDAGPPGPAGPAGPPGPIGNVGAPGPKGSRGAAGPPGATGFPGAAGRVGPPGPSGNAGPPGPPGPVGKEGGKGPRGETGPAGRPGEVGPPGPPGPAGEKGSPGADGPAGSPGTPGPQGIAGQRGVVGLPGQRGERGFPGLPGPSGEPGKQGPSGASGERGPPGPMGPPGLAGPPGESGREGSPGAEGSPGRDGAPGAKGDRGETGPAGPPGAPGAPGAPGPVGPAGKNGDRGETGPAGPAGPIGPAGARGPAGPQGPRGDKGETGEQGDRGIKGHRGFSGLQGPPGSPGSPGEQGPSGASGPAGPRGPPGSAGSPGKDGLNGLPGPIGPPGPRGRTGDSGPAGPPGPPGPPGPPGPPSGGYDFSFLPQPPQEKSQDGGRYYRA
T2 sequence (P02466 86-1125, chain 2 of 2, further chain): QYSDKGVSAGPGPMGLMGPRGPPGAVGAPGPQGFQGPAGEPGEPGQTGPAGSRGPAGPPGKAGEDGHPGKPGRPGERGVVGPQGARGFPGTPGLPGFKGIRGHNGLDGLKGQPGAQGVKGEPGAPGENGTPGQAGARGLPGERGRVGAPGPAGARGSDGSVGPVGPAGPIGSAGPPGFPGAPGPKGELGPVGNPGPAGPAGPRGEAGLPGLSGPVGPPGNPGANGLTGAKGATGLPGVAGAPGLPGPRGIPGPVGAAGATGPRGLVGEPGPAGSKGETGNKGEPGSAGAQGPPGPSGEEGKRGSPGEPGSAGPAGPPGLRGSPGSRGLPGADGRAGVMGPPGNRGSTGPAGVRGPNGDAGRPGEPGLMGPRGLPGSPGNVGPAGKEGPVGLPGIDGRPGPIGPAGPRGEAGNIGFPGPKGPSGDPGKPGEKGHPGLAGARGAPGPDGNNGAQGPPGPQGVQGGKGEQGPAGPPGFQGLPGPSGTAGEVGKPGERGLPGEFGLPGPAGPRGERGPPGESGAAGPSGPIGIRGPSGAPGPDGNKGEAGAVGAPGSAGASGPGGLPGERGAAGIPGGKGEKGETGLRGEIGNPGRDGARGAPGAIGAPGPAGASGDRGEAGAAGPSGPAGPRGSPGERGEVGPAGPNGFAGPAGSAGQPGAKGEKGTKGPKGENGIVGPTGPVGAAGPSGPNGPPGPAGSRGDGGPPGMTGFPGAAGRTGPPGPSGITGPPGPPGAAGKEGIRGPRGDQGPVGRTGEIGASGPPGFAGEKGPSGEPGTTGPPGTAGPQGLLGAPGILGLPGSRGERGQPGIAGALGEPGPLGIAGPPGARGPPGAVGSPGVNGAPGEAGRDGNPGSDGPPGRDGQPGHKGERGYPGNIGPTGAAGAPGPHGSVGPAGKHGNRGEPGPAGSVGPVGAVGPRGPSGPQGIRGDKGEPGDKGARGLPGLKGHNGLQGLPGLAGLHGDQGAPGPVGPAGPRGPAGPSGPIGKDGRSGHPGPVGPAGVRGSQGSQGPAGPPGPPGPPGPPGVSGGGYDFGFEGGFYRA
T3 sequence (P02769 25-607 limits assumed): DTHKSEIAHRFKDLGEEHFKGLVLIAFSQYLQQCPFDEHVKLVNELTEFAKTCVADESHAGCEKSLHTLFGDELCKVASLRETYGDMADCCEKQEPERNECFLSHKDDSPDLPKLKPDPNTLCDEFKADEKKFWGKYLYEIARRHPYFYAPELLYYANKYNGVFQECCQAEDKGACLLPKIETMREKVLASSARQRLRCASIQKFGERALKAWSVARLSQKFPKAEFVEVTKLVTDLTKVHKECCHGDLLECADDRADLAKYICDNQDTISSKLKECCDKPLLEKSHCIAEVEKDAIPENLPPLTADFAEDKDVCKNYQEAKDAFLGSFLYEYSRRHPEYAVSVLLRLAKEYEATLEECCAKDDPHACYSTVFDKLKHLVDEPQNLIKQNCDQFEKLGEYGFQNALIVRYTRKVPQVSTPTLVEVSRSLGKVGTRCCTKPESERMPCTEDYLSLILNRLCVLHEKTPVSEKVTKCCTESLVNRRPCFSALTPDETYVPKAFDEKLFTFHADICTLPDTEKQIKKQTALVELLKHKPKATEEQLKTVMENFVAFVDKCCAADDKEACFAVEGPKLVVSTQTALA
T1 sequence (peptide, as listed by the source limits assumed): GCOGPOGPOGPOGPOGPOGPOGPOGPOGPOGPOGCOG

B1: LAIR30.2.K1.B displayed on yeast (Aga2 fusion with c-myc tag) (receptor)
chain: QEGSLPDITIFPNSSLVISQGTFVTVVCSYSDKHDLYNMVRLEKDGSTFMEKSTAPYKTEDEFEIGPVNETITGHYSCIYSKGITWSERSKTLELKVIKENVIQTPAPGPTSDTLWLKTYSIY
notes: not shown: Aga2 protein of yeast, display anchor of the pCTCON2 vector; c-myc tag after the LAIR gene
What is called koff is the first-order rate constant of dissociation. High values mean fast dissociation, low ones slow dissociation. Consider B1, for which the koff in [1] is 4.17e-06 s⁻¹.

B2: His-tagged biotinylated lumican (other)
chain: QYYDYDIPLFMYGQISPNCAPECNCPHSYPTAMYCDDLKLKSVPMVPPGIKYLYLRNNQIDHIDEKAFENVTDLQWLILDHNLLENSKIKGKVFSKLKQLKKLHINYNNLTESVGPLPKSLQDLQLTNNKISKLGSFDGLVNLTFIYLQHNQLKEDAVSASLKGLKSLEYLDLSFNQMSKLPAGLPTSLLTLYLDNNKISNIPDEYFKRFTGLQYLRLSHNELADSGVPGNSFNISSLLELDLSYNKLKSIPTVNENLENYYLEVNELEKFDVKSFCKILGPLSYSKIKHLRLDGNPLTQSSLPPDMYECLRVANEITVNGGGSHHHHHH
modifications: biotinylated (site not stated)
notes: also called Lwt-His-b; Lwt-HIS-b
Broadly, the EC50 (read off the curve) is the concentration needed to bring the measured effect to its halfway point. Low readings indicate a more potent agent, high ones a less potent agent. B2: in [2], the “EC50 (read off the curve)” value is approximately 20 nM. In test [3], the binding result is on record as “no binding”.

B3: lumican (purified His-tagged murine lumican, not biotinylated) (other)
chain: QYYDYDIPLFMYGQISPNCAPECNCPHSYPTAMYCDDLKLKSVPMVPPGIKYLYLRNNQIDHIDEKAFENVTDLQWLILDHNLLENSKIKGKVFSKLKQLKKLHINYNNLTESVGPLPKSLQDLQLTNNKISKLGSFDGLVNLTFIYLQHNQLKEDAVSASLKGLKSLEYLDLSFNQMSKLPAGLPTSLLTLYLDNNKISNIPDEYFKRFTGLQYLRLSHNELADSGVPGNSFNISSLLELDLSYNKLKSIPTVNENLENYYLEVNELEKFDVKSFCKILGPLSYSKIKHLRLDGNPLTQSSLPPDMYECLRVANEITVNGGGSHHHHHH
notes: also called Lwt
On to B3, for which the “fold reduction of binding affinity if lumican was not warmed to 37° C. prior to measurement” value in test [4] is approximately 50 fold.

B4: Lumican-Gluc (His-tagged murine lumican fused to Gaussia luciferase) (other)
chain: QYYDYDIPLFMYGQISPNCAPECNCPHSYPTAMYCDDLKLKSVPMVPPGIKYLYLRNNQIDHIDEKAFENVTDLQWLILDHNLLENSKIKGKVFSKLKQLKKLHINYNNLTESVGPLPKSLQDLQLTNNKISKLGSFDGLVNLTFIYLQHNQLKEDAVSASLKGLKSLEYLDLSFNQMSKLPAGLPTSLLTLYLDNNKISNIPDEYFKRFTGLQYLRLSHNELADSGVPGNSFNISSLLELDLSYNKLKSIPTVNENLENYYLEVNELEKFDVKSFCKILGPLSYSKIKHLRLDGNPLTQSSLPPDMYECLRVANEITVNGGGSGGGSGGGSKPTENNEDFNIVAVASNFATTDLDADRGKLPGKKLPLEVLKEMEANARKAGCTRGCLICLSHIKCTPKMKKFIPGRCHTYEGDKESAQGGIGEAIVDIPEIPGFKDLEPMEQFIAQVDLCVDCTTGCLKGLANVQCSDLLKKWLPQRCATFASKIQGQVDKIKGAGGDGGGSHHHHHH
notes: Expressed in HEK293 cells, 56.6 kDa; also called Lum GLuc
As usually defined, the Kd is the constant that tells how readily two partners part at equilibrium. Read a low Kd as higher affinity. With B4, the Kd in [5] came out at 130 nM; in [6], 600 nM. The “EC50 (read off the curve)” value in test [7] and in [8] was approximately 60 nM throughout.

B5: ColG s3a/s3b-Gluc (bacterial collagenase ColG domains s3a/s3b fused to Gaussia luciferase, His-tagged) (other)
chain: PITKEMEPNDDIKEANGPIVEGVTVKGDLNGSDDADTFYFDVKEDGDVTIELPYSGSSNFTWLVYKEGDDQNHIASGIDKNNSKVGTFKSTKGRHYVFIYKHDSASNISYSLNIKGLGNEKLKEKENNDSSDKATVIPNFNTTMQGSLLGDDSRDYYSFEVKEEGEVNIELDKKDEFGVTWTLHPESNINDRITYGQVDGNKVSNKVKLRPGKYYLLVYKYSGSGNYELRVNGGGSGGGSGGGSKPTENNEDFNIVAVASNFATTDLDADRGKLPGKKLPLEVLKEMEANARKAGCTRGCLICLSHIKCTPKMKKFIPGRCHTYEGDKESAQGGIGEAIVDIPEIPGFKDLEPMEQFIAQVDLCVDCTTGCLKGLANVQCSDLLKKWLPQRCATFASKIQGQVDKIKGAGGDGGGSHHHHHH
notes: Expressed in HEK293 cells, 46.1 kDa; also called ColG-Gluc; ColG s3s/s3b-Gluc
B5 yielded a Kd in test [5] of 139 nM.

B6: extracellular domain of His-tagged murine LAIR-1 (receptor)
chain: QEGSLPDITIFPNSSLMISQGTFVTVVCSYSDKHDLYNMVRLEKDGSTFMEKSTEPYKTEDEFEIGPVNETITGHYSCIYSKGITWSERSKTLELKVIKENVIQTPAPGPTSDTSWLKTYSIYHHHHHH
notes: The entry includes the C-terminal His tag; Expressed in HEK293 cells; also called mLAIR1-His; mLAIR1
B6: the “EC50 (read off the curve)” value in test [2] is approximately 20 nM. Also, the binding result in test [3] was “no binding”. The “IC50 (read off the curve)” value in test [9] is approximately 300 nM.
